Article PMC7299343, “Two forms of Opa1 cooperate to complete fusion of the mitochondrial inner-membrane” (eLife, 2020)
Residue numbers refer to the chain shown, from its start. In names and notes the source's numbering stands.

B1: long form of human Opa1 (l-Opa1), wild type (natural protein, UniProt O60313-1 88-960, looked up)
chain: FWPARLATRLLKLRYLILGSAVGGGYTAKKTFDQWKDMIPDLSEYKWIVPDIVWEIDEYIDFEKIRKALPSSEDLVKLAPDFDKIVESLSLLKDFFTSGSPEETAFRATDRGSESDKHFRKVSDKEKIDQLQEELLHTQLKYQRILERLEKENKELRKLVLQKDDKGIHHRKLKKSLIDMYSEVLDVLSDYDASYNTQDHLPRVVVVGDQSAGKTSVLEMIAQARIFPRGSGEMMTRSPVKVTLSEGPHHVALFKDSSREFDLTKEEDLAALRHEIELRMRKNVKEGCTVSPETISLNVKGPGLQRMVLVDLPGVINTVTSGMAPDTKETIFSISKAYMQNPNAIILCIQDGSVDAERSIVTDLVSQMDPHGRRTIFVLTKVDLAEKNVASPSRIQQIIEGKLFPMKALGYFAVVTGKGNSSESIEAIREYEEEFFQNSKLLKTSMLKAHQVTTRNLSLAVSDCFWKMVRESVEQQADSFKATRFNLETEWKNNYPRLRELDRNELFEKAKNEILDEVISLSQVTPKHWEEILQQSLWERVSTHVIENIYLPAAQTMNSGTFNTTVDIKLKQWTDKQLPNKAVEVAWETLQEEFSRFMTEPKGKEHDDIFDKLKEAVKEESIKRHKWNDFAEDSLRVIQHNALEDRSISDKQQWDAAIYFMEEALQARLKDTENAIENMVGPDWKKRWLYWKNRTQEQCVHNETKNELEKMLKCNEEHPAYLASDEITTVRKNLESRGVEVDPSLIKDTWHQVYRRHFLKTALNHCNLCRRGFYYYQRHFVDSELECNDVVLFWRIQRMLAITANTLRQQLTNTEVRRLEKNVKEVLEDFAEDGEKKIKLLTGKRVQLAEDLKKVREIQEKLDAFIEALHQEK
notes: OPA1, human, long form, residues 88-960 of UniProt O60313-1 (isoform 1), codon optimized for Pichia pastoris; Construct: Twin-Strep-tag, HRV 3C site, (G4S)3 linker at the N-terminus; (G4S)3 linker, TEV site, deca-histidine tag at the C-terminus; also called WT l-Opa1; TwinStrep-lOPA1-H10
B2: short form of human Opa1 (s-Opa1, S1 form), wild type (natural protein, UniProt O60313-1 195-960, looked up)
chain: ATDRGSESDKHFRKVSDKEKIDQLQEELLHTQLKYQRILERLEKENKELRKLVLQKDDKGIHHRKLKKSLIDMYSEVLDVLSDYDASYNTQDHLPRVVVVGDQSAGKTSVLEMIAQARIFPRGSGEMMTRSPVKVTLSEGPHHVALFKDSSREFDLTKEEDLAALRHEIELRMRKNVKEGCTVSPETISLNVKGPGLQRMVLVDLPGVINTVTSGMAPDTKETIFSISKAYMQNPNAIILCIQDGSVDAERSIVTDLVSQMDPHGRRTIFVLTKVDLAEKNVASPSRIQQIIEGKLFPMKALGYFAVVTGKGNSSESIEAIREYEEEFFQNSKLLKTSMLKAHQVTTRNLSLAVSDCFWKMVRESVEQQADSFKATRFNLETEWKNNYPRLRELDRNELFEKAKNEILDEVISLSQVTPKHWEEILQQSLWERVSTHVIENIYLPAAQTMNSGTFNTTVDIKLKQWTDKQLPNKAVEVAWETLQEEFSRFMTEPKGKEHDDIFDKLKEAVKEESIKRHKWNDFAEDSLRVIQHNALEDRSISDKQQWDAAIYFMEEALQARLKDTENAIENMVGPDWKKRWLYWKNRTQEQCVHNETKNELEKMLKCNEEHPAYLASDEITTVRKNLESRGVEVDPSLIKDTWHQVYRRHFLKTALNHCNLCRRGFYYYQRHFVDSELECNDVVLFWRIQRMLAITANTLRQQLTNTEVRRLEKNVKEVLEDFAEDGEKKIKLLTGKRVQLAEDLKKVREIQEKLDAFIEALHQEK
notes: OPA1, human, short form corresponding to the S1 form that results from Oma1 cleavage, residues 195-960 of UniProt O60313-1, codon optimized for Pichia pastoris; Construct: Twin-Strep-tag, HRV 3C site, (G4S)3 linker at the N-terminus; (G4S)3 linker, TEV site, deca-histidine tag at the C-terminus; His tag said to be cleaved with TEV in all the functional assays; also called WT s-Opa1; …
B3: G300E mutant of s-Opa1 (s1) (natural protein, human, UniProt O60313-1 195-960, looked up)
chain: B2 chain with G106E
notes: OPA1, human, short form (S1), residues 195-960 of UniProt O60313-1, with G300E; same tags and linkers as m2; also called G300E s-Opa1; sOPA1 (G300E); source: Pichia pastoris SMD1163, purified

Assays:
[1] = biological target: the molecule itself; assay: native gel or EMSA; Blue native PAGE (BN-PAGE), 3-12% Bis-Tris gradient gels, sample buffer with 0.25% Coomassie G-250 and 1 mM DDM, cathode buffer with 1 mM DDM, 4 °C; mixtures of l-Opa1 and s-Opa1 incubated on ice for 10 min before loading
[2] = biological target: B1; assay: as above; settings: both partners purified

| Binder | binding result [1] | binding result [2] |
| --- | --- | --- |
| B1 | binds |  |
| B2 | binds |  |
| B3 |  | binds |
